Assay [1] has as its target Chicken gizzard tropomyosin (Tpm), purified (chicken). In words: plate assays on immobilized chicken gizzard Tpm (FIGS. 14 and 15).
For assay [2] the target is unchanged. The experiment in a line: competition with 10 nM biotin-HKa on plate coated with chicken gizzard Tpm, 10 µM ZnCl2.
Assay [3] has the same target. In words: competition ELISA against 10 nM biotin-HKa on immobilized chicken gizzard Tpm, 10 uM ZnCl2; Kd by non-linear regression. (In an ELISA, binding on a coated surface is turned into a signal by an enzyme label.)
Assay [4] has as its target Tropomyosin (Tpm) exposed on the surface of proliferating human umbilical vein endothelial cells (human). In words: biotin-HKa on unfixed subconfluent HUVEC in 96-well plates, 4 °C, with and without 10 µM Zn2+, streptavidin-peroxidase; nonlinear regression.

As usually defined, the Kd is a measure of binding affinity in units of concentration.

Chain of Chicken gizzard tropomyosin (Tpm), purified (chicken) (chain, as listed by the source limits assumed): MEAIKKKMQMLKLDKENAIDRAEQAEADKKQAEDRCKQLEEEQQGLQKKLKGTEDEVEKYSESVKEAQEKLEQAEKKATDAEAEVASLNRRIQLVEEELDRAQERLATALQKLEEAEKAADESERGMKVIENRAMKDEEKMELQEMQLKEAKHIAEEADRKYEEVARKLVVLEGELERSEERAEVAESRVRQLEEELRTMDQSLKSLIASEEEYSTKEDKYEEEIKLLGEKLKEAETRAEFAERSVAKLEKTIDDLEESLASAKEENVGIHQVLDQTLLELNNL
Chain of Endostatin (ligand) (P39060 1572-1754): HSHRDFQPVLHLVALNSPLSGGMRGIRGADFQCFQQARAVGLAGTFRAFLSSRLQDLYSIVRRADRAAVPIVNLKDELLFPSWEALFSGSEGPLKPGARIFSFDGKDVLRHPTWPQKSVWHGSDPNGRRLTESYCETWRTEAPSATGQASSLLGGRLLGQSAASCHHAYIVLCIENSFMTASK

In assay [1], Endostatin (ligand) returned a fold lower affinity than HKa or HKa-D5 of 1000 fold. Besides, the Kd was 2 µM in assay [2] and 1.97 µM in assay [3].
In assay [4], “Two-chain high molecular weight kininogen (HKa) (from UniProt P01042 19-380; P01042 390-644) (ligand)” displayed a Kd of 0.0025 µM.

For the origin of these results see patent US20050124794A1, “Cell surface tropomyosin as a target of angiogenesis inhibition” (priority 2002, published 2005).
